Assay results taken from article PMC10030265, “The lipid linked oligosaccharide polymerase Wzy and its regulating co-polymerase, Wzz, from enterobacterial common antigen biosynthesis form a complex” (Open Biology, 2023).

Assays:
[1] = target: WzyEPA-GST-distrepII (Pectobacterium atrosepticum) (UniProt Q6CZF1); test: cryo-EM structure; negative stain and single-particle cryo-EM of the WzyEPA : WzzEPA complex labelled with the IgG anti-strep tag II antibody; model at approximately 20 Å, C2 symmetry, dumbbell of two WzzEPA octamers
[2] = target: the molecule itself; test: as above
WzyEPA-distrepII = target: T1, WzyEPA-distrepII (Pectobacterium atrosepticum, UniProt Q6CZF1 1-463); test: quantitative immuno-dot blot; serial dilution of the co-purified complex on nitrocellulose, standard curves of each purified protein, HRP-coupled anti-His and anti-strep tag II, chemiluminescence; corrected for untagged Wzz; conditions: both partners purified
T1 construct: WzyE, ECA polymerase, Pectobacterium atrosepticum SCRI 1043 (ATCC BAA-672); cloned into a proprietary vector constructed by Huanting Liu; Predicted 57 kDa; the distrepII tag is TEV protease-cleavable; source: DDM-solubilised membranes; not shown: distrepII, C-terminal, kept
T1 sequence (looked up): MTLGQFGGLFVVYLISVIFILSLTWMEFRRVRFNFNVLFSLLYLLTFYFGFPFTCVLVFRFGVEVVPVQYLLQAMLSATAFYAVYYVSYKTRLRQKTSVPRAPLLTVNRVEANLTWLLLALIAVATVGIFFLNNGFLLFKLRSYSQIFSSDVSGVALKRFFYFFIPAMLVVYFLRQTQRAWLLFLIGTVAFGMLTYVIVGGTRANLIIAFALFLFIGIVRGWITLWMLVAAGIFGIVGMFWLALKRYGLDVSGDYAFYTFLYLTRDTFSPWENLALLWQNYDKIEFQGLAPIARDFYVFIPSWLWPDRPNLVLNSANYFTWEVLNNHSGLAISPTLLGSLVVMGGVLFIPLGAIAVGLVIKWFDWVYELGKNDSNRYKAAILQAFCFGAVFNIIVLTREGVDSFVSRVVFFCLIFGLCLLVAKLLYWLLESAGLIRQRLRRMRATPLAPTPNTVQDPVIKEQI

[3] = target: the molecule itself; test: cryo-EM structure; TEV-cleaved, SEC-purified WzzEPA : WzyEPA sample at 5 mg/ml in DDM; Titan Krios; C4 symmetry; 3.6 Å; only WzzEPA seen in the map

**Q.** How did the stoichiometry N (WzzEPA per WzyEPA) [1] turn out when “His6-WzzEPA (from UniProt Q6CZE3 1-348) (natural protein)” was run?
**A.** 8

B1: His6-WzzEPA (natural protein, Pectobacterium atrosepticum, UniProt Q6CZE3 1-348, looked up)
chain: MKSENLSTGNALIDNELDIRGLFRLLWRGKVWPIAIGLLFAVVALGYSYLVKQEWGATSITDKPTVNMLGGYYSQQQFLRNLDARSFSSPQPEQPSISAGAYDEFIMQLAAYDTRRDFWLQTDYYKQRLEGDEKADAALLDELVNNIQFTARDDGKKTNDSVKLVAETSSDSNTLLRQYVVFASQRAANHLNEEIKGAWAARTIFMKSQIKRQEAVAKAIYDREVRSVELALKIAQQQGISRSQTDTPADEIPASEMFLLGRPMLQARLETLQTSGPHYELDYDQNRAMLATLNVGPTLEASFQTYRYLRTPEEPVKRDSPRRAFLMVMWGAIGVLVGAGVALARRLR
notes: WzzE, polysaccharide co-polymerase of enterobacterial common antigen biosynthesis, Pectobacterium atrosepticum SCRI 1043 (ATCC BAA-672); cloned into pEHisTEV; Predicted 42 kDa; His6 tag is TEV protease-cleavable; The methods say that Wzz ran as a double band and that the lower band was not seen by the anti-His antibody (partly untagged); Isolated Wzz may have various oligomeric states; octamer in …
**Q.** What does the source list for B1?
**A.** stoichiometry N [2]: 8 subunits in the oligomer; stoichiometry N (WzyEPA-distrepII): 9.6 ± 1.8 His6-WzzEPA : WzyEPA-distrepII (molar ratio)

B2: WzzEPA (TEV protease cleaved, affinity tag removed) (natural protein, Pectobacterium atrosepticum, UniProt Q6CZE3 1-348, looked up)
chain: B1 chain
notes: WzzE, Pectobacterium atrosepticum SCRI 1043; residues I39-V337 modelled, residues 1-39 and 338-348 not visualized; also called full length WzzEPA; source: E. coli C43(DE3), co-expressed with WzyEPA; not shown: His6, N-terminal, cleaved
**Q.** For B2, which “stoichiometry N” value [3] is on record?
**A.** 8 subunits in the oligomer
